Key:
人源淀粉样蛋白42 Aβ42 单体 = biological target: T1, 人源淀粉样蛋白42 Aβ42 单体 (human, UniProt P05067 672-713); assay: ELISA, Aβ coated at 5 μg/mL, 7B8 diluted 1:20,000, OD450
T1 construct: domain: Aβ42; Monomer preparation; also called Aβ42 mon

人源淀粉样蛋白42 Aβ42 寡聚体 = biological target: T2, 人源淀粉样蛋白42 Aβ42 寡聚体 (human, UniProt P05067 672-713); assay: dot blot on nitrocellulose, ECL
T2 construct: domain: Aβ42; Oligomer preparation; also called Aβ42 oli

人源淀粉样蛋白42 Aβ42 纤维体 = biological target: T3, 人源淀粉样蛋白42 Aβ42 纤维体 (human, UniProt P05067 672-713); assay: dot blot on nitrocellulose, ECL
T3 construct: domain: Aβ42; Fibril preparation; also called Aβ42 fib
T3 sequence (P05067 672-713 limits assumed): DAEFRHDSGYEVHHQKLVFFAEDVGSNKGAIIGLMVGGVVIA

Measured: binding result

T2 sequence (P05067 672-713 limits assumed): as above
T1 sequence (P05067 672-713 limits assumed): as above

B1: 靶向淀粉样蛋白的单克隆抗体7B8 (antibody, mouse IgG1, V domains shown)
VH: QVQLQQPGAELVKPGASVKLSCKTSDYSFTSYWMHWVKQRPGQGLEWIGEINPSNGRKKYNEKFKSKATLTVDTSSSTAYMQLSSLTSEDSAVYYCAREGRGYWGQGTTLTVSS
VL: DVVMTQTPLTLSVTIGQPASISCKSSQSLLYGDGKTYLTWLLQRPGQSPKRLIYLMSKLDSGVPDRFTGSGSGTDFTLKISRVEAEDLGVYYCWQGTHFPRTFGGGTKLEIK
notes: also called 抗Aβ3-10的单克隆抗体
binds: all assays above

Reference: CN113603773A (FIRST HOSPITAL CHINA MEDICAL UNIV, dated 2021)
